A short description of the series: soluble fraction after stress (log2 fold change); higher = more stays soluble; pooled small domains, quantitative proteomics. The following applies: stress: 75 degC.

Bounds are passed on as bounds.
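Also: 20 min heating vs room temperature control held 20 min.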

Regarding “HMNVSVSITKELQVYINDERISSSALESTLKSKLAGIENPTIILRAEEGVPIEKAVNVMDIANRNRYKIVL”, the “soluble fraction (log2)” value was -1.32.
With “HMNVYAGTMINVVGLQVEDAASRLRGLFYSVKIVEEESQEPDGKVLRQNIAEGTKDLEAWTLVELTVSKYV” the figure was -2.73.
Consider “HMNVYEVKFGDTLDEIIKTYLFDIPVKKSILRQAVILANPHAFRRNNPHWMYSDRQLKLPELQDIRRAIF”, for which the “soluble fraction (log2)” value was -0.317.
Regarding “HMNYGDVIEGQIMHVDRDELLVDIGSKSEGIIPAREFSTLTDEERAALSVGDHVLVFVVQAENQEGQAV”, the “soluble fraction (log2)” value is 0.297.
With “HMNYIEWKNTFKKYLYLLPIKEEKETLAYFDEQYNKLNPKDLDNVENIFSDPIDKAAFVVAFYLEMEDEIK” the figure was -0.895.
With “HMNYIGADAAKNMAAADAQVDTANASFSGANLGEKNGLSYYQVDFTANGREYHYAIDAMTGTVIESSSAAS” the figure was 0.122; with “HMNYNEKGEYTRTLTSGSETAVMTYRNFGETLDVALFKNGVQTDSLRLIKSEPGVLYRQSNGQFEKI”, -0.158; with “HMNYSIVNVGFNNKSLFLRSAPGYSASRLLLPFATERAFVRETLSNGWSRVIVRGTEGYLPTEYVAD”, 0.345.
With “HMNYSKQRETILKVLRSTRSHPSVNWIYENVKKEIPDVGLATVYRNLKQLEAAGEIMRIQGDFPEERWDGF” the figure was -1.65; with “HMNYTALLNNFSENMKKRRVELSLSQKELASIVGVSVRTIQNYENKKTIPTSAVMESISIALDMGLEKMID”, -1.91.
Consider “HMNYTQAQIDRANAVSLEDFLRTQGETLIKSGREYRWKEHDSLTVRGNKWFRHSQSKGGYPIDFVMEFTA”, for which the “soluble fraction (log2)” value worked out at 0.108.
“HMNYYYKDNQYWYVGFRYDERLVKEIKRFVGAGYNPENKEWYIPFTLPTVAPLQKWLHDNGFVEGMNYYP”: the “soluble fraction (log2)” value is -2.56.
With “HMPAAFALLTDREREIAALIAQRLTNREIAEKLYLSEGSVKQYVNQLYAKLGIEGDTRTKRRRLAEQAK” the figure was -0.641; with “HMPAAKARTWQEATHAFQRDFLLETLRRARFNAADAADQLGLARPALYTTAKRLGLDLVAERQRWEAEAH”, -0.668; with “HMPAAPVFLQKDLLDAGLIGQADSAARREKLGKILGIGYGNGKVMLQRLNSFGIERDAFEQAVQE”, 0.081.
With “HMPAASDALAGELAQIARLDIAKLLAGDLSEADWSRITSATVQLSERHPDASDELTALVERIDTAYSARAT” the figure was 0.0397; with “HMPAEGWEASGDTWRYRQKDGSYITNAWVQDTDGKWYYFDESSLMVRNQTTSDGYYVGEDGVWTET”, -0.136; with “HMPAELGVVVRNANLRSGPGTKYAIVGSAPAGTTVRIAGTNKAGDWYHLSSGRWIAAFLVDRN”, -1.99.
With “HMPAERLSMRKIYEILRLKYGHGLSNREVALSVSVSRSTVADYLLRAQAAGLSWPLPDGLDETGLEQRLFP” the figure was -3.96; with “HMPAFGALTLRQRDLVELIAQGLDNSQIAARLGLAEKTVRNHITMIFNKLEMENRSQVIVRARESGFGAVR”, -1.87; with “HMPAKIIKKSFVYNPIHRDTEYLAQFLQGEGQVSASGDKLVYYGTVEDISRIKSVLQSVDTPS”, 0.169.
Take “HMPALATKDSVLDGRAEVVSYVRDTSVFYLRVRVPQKQGYRSRRIDGVSTLPEAITKALDTYMDLGT”: the “soluble fraction (log2)” value is -2.6.
With “HMPALELLVESKKPLLIHGEKIAEDINLFDREKYFIDDELIRIVKEFPSLKIILEHVSSKYGAD” the figure was -2.18; with “HMPAMYKAERMNQILSILADQGDVDVGTLARQFGVSLVTIRKDLTYLESSGQLVRTHGGAIAVA”, -0.707; with “HMPASVEYIRLAAEQMTGQQVTIIEQPGNYAFILRIHLNDIYSLDLAALRARIDELKPAHLTYTVEQYD”, -2.86.
Turning to “HMPATTMMVVVDRDLPYGHVLTDRDVRLETRRATSPGASVAFTSIDPVLGQSLTRPLGAGTPVGRADLR”, the “soluble fraction (log2)” value was -0.218.
Consider “HMPAVVEFDVKPRGEVLVDGIWYGRIPELREVELRPGRHHLRVQNAGHPSLDLVVTLEPGERMTVTHTFA”, for which the “soluble fraction (log2)” value is -0.529.
With “HMPDAENFRYRVPYTTEQNRLQYYEGDIRAENADKARDQVMQDAQKYFAQNTAFTPNYIDTDIISLD” the figure was 0.946; with “HMPDFAENAVYGKQREDSLYAHAYKHFQLGDTTTVRAAEHLSAEIYPLGQHRPKFMFLNAVTR”, 0.309; with “HMPDITAAVARTLQALRADRGWSLDQLAARSGVSKGVLVALEQGRSNPNLATLARIGDAFGVPVTLLVDL”, -1.45.
With “HMPDPHSEARNIVLNQLNFMPRSRKELETALAKRNIEADVAKIVLDRFEEIGMVDDAAYAEL” the figure was 0.121; with “HMPDPLYLINGKIVNKSDFNNIDPRSIQSIEVLKANKALEAFGNDGKNGVIKITLKSSNDQM”, -0.104; with “HMPEEGPSEDGNSFTAKFKLGSDVQGAMEQADAAAKAGLQDAGKGTGQITSRAQVGGYIYSTATA”, 0.142.
With “HMPEIFYRKIHRTDHDQIALDAEMIRLLIAIDEKKSLSQIAAEVQMEPMALKKNLGKLIQLGLVEPIK” the figure was -0.616; with “HMPELSNNLDRDKVALKNFNESLKDGLTPAEAYANHLTNVSKAAQEAARQSNGLPVDIDKYHNSQLAASMA”, 0.378; with “HMPEMAIRTLRLRNQRGAAVAAEWSRITASLLELRQVEFVNPVDQLIVLKGPEPWAGVAEELVRQLDV”, -2.55.
As for “HMPEQLLNTRIPLEFAGRRFDASLAELFPDYSRSRLAAWIKDGAARLDGETVAPRHTVRGGEQVEILVRM”, the “soluble fraction (log2)” value is -0.729.
With “HMPERLTYVHPDGAEPMRADKALAAFLSGRISRSRLLGSFSAGKVMAGGKPVEKKLLLRAGDALEVELPEP” the figure was -0.239.
With “HMPERMLEPLLNGNEIMKVTQLQPGPKVGLIRDALLQAQISGDVTDTESAKAFVQDYAKRNI” the figure was 0.0453; with “HMPESETIMVDVKGAVQSEGVYELPSTARVNDAIEAAGGFSDQADKKSVNLAQKLSDEAVVYVASQGENV”, 0.76.
With “HMPEVTMSYSARNQVVSFSKATQYEIVDEFGTVVLRGVGNQATLRYLSRGDYFVNFGAGTEVLKK” the figure was -0.0464; with “HMPEVYSFEVNEGAAGKRLDIFLSGEIEGLTRSFIQKLISEGMATVNQEPPRASYRVKTRDLVELQIPDPE”, -0.334.
As for “HMPFDWSAFDWKGWADEALAIIKTANQDQMNKWTEDNEKIIVQAETAAPDIYKTVGDEYDKKMESFN”, the “soluble fraction (log2)” value was found to be 0.0145.
With “HMPFESEMKHWIHLFAHELNLKVSDKYTQKIIEIFGNNFSEIFNEMSKSSLVSSNEKDLLNALEKSGNIH” the figure was -0.799; with “HMPFGIYGGKVSSLDDLKDKAAVLVPNDVSNEARALLLLEAQGLIKLKEGVGLEATRNDIVEN”, at least 1.04; with “HMPFTLDGVNEGSRNDQAARMSGYLISKNLNMDFIKFFMQSWNRQNSPPLSQREINSVVDNVKRTHDRKNK”, -1.88.
With “HMPGKVSDAGATAKDNRLFLEAVFWRVRTGSPWRDLPPAFGHWNSQFRRFRRWAKAGVFESLFNA” the figure was 0.182; with “HMPGRKKLAIIYKNDYIGAFNLADSYRDSYEVSMYAFPKKVGKLLNRLELQGFNAYVIYDKDNEENNFNTI”, -1.82.
With “HMPGSGELSRRLELAIRDRTAVRVTAAAAGQERSFTLLPVAITSGRLRATDEQAGVQRTLPLSAIVAVEA” the figure was -0.179.
Consider “HMPGTEAQDGEVLLDALRRIHPDSSTGTLRRMLTQGRVQVDGTTVHAAKAELTSGQHVEVVAR”, for which the “soluble fraction (log2)” value amounted to 0.136.
As for “HMPIDIEPVLQWIRDNSIDGIGPARSMYHSAAAAAGLPSYSSLQLRKWTWPLLLDAAGVQRR”, the “soluble fraction (log2)” value was -0.427.
With “HMPIRMLQVQKTNTGYLNVRDTPSVSGALIGKVFPGDMLSSTEERDGWFLVAVPQGGTGWVSGDYVKTTS” the figure was -0.191.
In the case of “HMPKAPHETLSRREMEVLLLLSEGVTLTRIGDTIHVSVKTVSTYRARILQKLDLQSNAELTRYVLQHKL”, the “soluble fraction (log2)” value is -5.8.
With “HMPKHDWDAFAGAIARRVHDHGMPVSQGELVRDMMDWFAGRKDFPPPDERTVRRKVSAIWRELNG” the figure was -1.38.
With “HMPKIPRLTLTETAGIMGVSQRALALAIQQGMYSWAQALPGRNKKRPIYFINAITFAKAQGIDLEEYK”, the “soluble fraction (log2)” value was -1.13.
With “HMPKKLIWERTTSKLQLYITQDRYELKTPLMTIPFTSKSKMMVYLQQRYHLDMQEYRQIYDAG” the figure was -2.28.
“HMPKMDGLTVMEQVNQDHFVNKRPYFIVITAVGQEKITEDAFNKGANYYVMKPFNNNMLLERIKSVRK”: the “soluble fraction (log2)” value was found to be 0.642.
With “HMPKYLNIYHELAQRIQEGALPAETKLPSETELMQEFEASRGTVRKAIDALQEKGFVRKHQGKGVFVLSQ” the figure was -0.00712; with “HMPLDYNELRSISPKAARQAILQILAANKGNVSATAKLLGVSRKTVYKAMHKKASGNLDDTSRAPK”, -1.74; with “HMPLITAIELDSISARSFQFNTQSGSTYFIEGSTDLKSWDVIAEVKATDSTTTYEDHRKIYHEAYFYRVRL”, -1.84.
With “HMPLITDIKIQVKNTEKVSLFVDGKYSFSLTISQLAEHKILKTNQEISAKQVAEFKKLSNLTNLYIRIVG” the figure was -0.305.
With “HMPLITLSAEIQSEQIGQRLDQTLAELFPEYSRSRLKTWIEADLVKLNNQIVNIPREKVLGGEHVEITVDI” the figure was -1.09; with “HMPLNRFLNLPHEDKERVLLIAKKQFSTHGYDAMSLNLLLKELDISKGQFYYWFEDKADLFFTVL”, -0.11.
On to “HMPLRPNQRQFIHLMVYQGLDRNEAYAQANNKVLTEENYESIRTAAAKTFYTPHVNNYYHALMEEIRDRE”, for which the “soluble fraction (log2)” value is -0.471.
With “HMPLSVRQRMSDILSNLKTSDFTNFADLFDPKEGRTGITVTFIAILELLREFLIEVVQSDHYQPLHVRAAS” the figure was -0.213.
With “HMPLTAASLQTYLRGVDYPASKQDLIAHARKSDAPEDAITVLEQYSEQTYRSAADVSAEFGS” the figure was 0.109.
With “HMPLTEMAVRKHLSAELAQKGYTIDPRALEILLQRTNTNLTAIANELPKLLLVAEDKQITVNEVSAM” the figure was -0.319; with “HMPLTKKLETLFSLFPKYEKELKKKGVTRIHVWANYKEEYPDGIGRSQFIHYYSFWKKQVSP”, -0.154.
For “HMPLVIIRGIEGVFSSEEKAEAIRKVTDALVSVKGENVRGFAWVVFEEVKSGDWGIGGESITAEKVIMSL”, the “soluble fraction (log2)” value worked out at 0.158.

Values taken from the domain aggregation screens of Martell et al. (2025).
